{"source": "paper PMC8599812", "about": "(Nucleic Acids Research, 2021)", "key": {"[1]": {"target": "T1, D2-Zn-WH helix4A (human, UniProt P46063 282-616, F420A;F424A;S427A;S428A)", "T1 sequence (P46063 282-616 F420A/F424A/S427A/S428A)": "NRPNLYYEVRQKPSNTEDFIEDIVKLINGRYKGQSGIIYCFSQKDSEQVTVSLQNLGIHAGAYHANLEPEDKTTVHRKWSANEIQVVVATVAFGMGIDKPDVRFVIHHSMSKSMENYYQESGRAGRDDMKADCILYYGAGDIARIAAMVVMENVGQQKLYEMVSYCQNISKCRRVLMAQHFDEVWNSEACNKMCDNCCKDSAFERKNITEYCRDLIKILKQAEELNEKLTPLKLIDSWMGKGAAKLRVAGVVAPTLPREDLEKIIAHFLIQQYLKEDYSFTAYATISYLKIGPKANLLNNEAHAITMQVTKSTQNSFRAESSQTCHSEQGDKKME", "assay": "fluorescence anisotropy"}, "[2]": {"target": "T2, D2-Zn-WH (human, UniProt P46063 282-616)", "assay": "fluorescence anisotropy"}, "[3]": {"target": "T2, D2-Zn-WH", "assay": "fluorescence anisotropy", "remark": "listed apart in the source"}, "[4]": {"target": "T1, D2-Zn-WH helix4A", "assay": "fluorescence anisotropy", "remark": "listed apart in the source"}, "[5]": {"target": "the molecule itself", "assay": "SEC"}, "[6]": {"target": "T2, D2-Zn-WH", "assay": "fluorescence anisotropy", "remark": "listed apart in the source"}, "[7]": {"target": "RECQ1T1 (human, UniProt P46063 49-616)", "assay": "fluorescence anisotropy"}, "[8]": {"target": "RECQ1T1,helix4A (human, UniProt P46063 49-616, F420A;F424A;S427A;S428A)", "assay": "fluorescence anisotropy"}}, "note": "Like-named read-outs stand apart in the source and are kept apart here.", "data": [{"binder": "Rec20_FL/Rec20R_3oh 20/10-mer 3' tailed duplex (dsDNA) DNA 1: GGATCTCGACGCTCTCCCTT DNA 2: GTCGAGATCC", "values": [{"measurement": "Kd", "setting": "[1]", "value": "5700 ± 1100", "unit": "nM"}, {"measurement": "Kd", "setting": "[2]", "value": "1970 ± 300", "unit": "nM"}]}, {"binder": "Rec20_FL/Rec20R 20 bp blunt duplex (dsDNA) DNA 1: GGATCTCGACGCTCTCCCTT DNA 2: AAGGGAGAGCGTCGAGATCC", "values": [{"measurement": "Kd", "setting": "[3]", "value": "1170 ± 120", "unit": "nM"}, {"measurement": "Kd", "setting": "[4]", "value": "2080 ± 150", "unit": "nM"}]}, {"binder": "RECQ1^T1 (near full-length human RECQ1, amino acid 49–616) (enzyme, UniProt P46063 49-616, looked up) CLEDSDAGASNEYDSSPAAWNKEDFPWSGKVKDILQNVFKLEKFRPLQLETINVTMAGKEVFLVMPTGGGKSLCYQLPALCSDGFTLVICPLISLMEDQLMVLKQLGISATMLNASSSKEHVKWVHAEMVNKNSELKLIYVTPEKIAKSKMFMSRLEKAYEARRFTRIAVDEVHCCSQWGHDFRPDYKALGILKRQFPNASLIGLTATATNHVLTDAQKILCIEKCFTFTASFNRPNLYYEVRQKPSNTEDFIEDIVKLINGRYKGQSGIIYCFSQKDSEQVTVSLQNLGIHAGAYHANLEPEDKTTVHRKWSANEIQVVVATVAFGMGIDKPDVRFVIHHSMSKSMENYYQESGRAGRDDMKADCILYYGFGDIFRISSMVVMENVGQQKLYEMVSYCQNISKCRRVLMAQHFDEVWNSEACNKMCDNCCKDSAFERKNITEYCRDLIKILKQAEELNEKLTPLKLIDSWMGKGAAKLRVAGVVAPTLPREDLEKIIAHFLIQQYLKEDYSFTAYATISYLKIGPKANLLNNEAHAITMQVTKSTQNSFRAESSQTCHSEQGDKKME", "values": [{"measurement": "stoichiometry N", "setting": "[5]", "value": 2}]}, {"binder": "GGATCTCGACGCTCTCCCTT (ssDNA)", "note": "[Rec20_FL ssDNA 20-mer]", "values": [{"measurement": "Kd", "setting": "[6]", "value": "1480 ± 110", "unit": "nM"}]}, {"binder": "Fork30T_R_FL/Fork30T_F forked duplex (dsDNA) DNA 1: TTTTTTTTTTTTTTTTTTTTTTTTTTTTTTCGTACCCGATGTGTTCGTTC DNA 2: GAACGAACACATCGGGTACGTTTTTTTTTTTTTTTTTTTTTTTTTTTTTT", "values": [{"measurement": "Kd", "setting": "[7]", "value": "87 ± 16", "unit": "nM"}, {"measurement": "Kd", "setting": "[8]", "value": "193 ± 27", "unit": "nM"}]}]}
